B1: Recombinant human (rh) CIRP (Accession #NP_001271; full length) with C-terminal DDK tag (ligand)
chain: MASDEGKLFVGGLSFDTNEQSLEQVFSKYGQISEVVVVKDRETQRSRGFGFVTFENIDDAKDAMMAMNGKSVDGRQIRVDQAGKSSDNRSRGYRGGSAGGRGFFRGGRGRGRGFSRGGGDRGYGGNRFESRSGGYGGSRDYYSSRSQSGGYSDRSSGGSYRDSYDSYATHNE
notes: Bought from Origene, expressed in HEK293 cells; also called recombinant human CIRP; human CIRP; not shown: C-terminal DDK tag
B2: CIRP-derived oligopeptide C22 (human CIRP aa 106-120) (peptide)
peptide: GGRGRGRGFSRGGGD
notes: Synthetic, Genscript
B3: human CIRP 15-mer oligopeptide aa 101-115 (peptide)
peptide: RGFFRGGRGRGRGFS
B4: CIRP-derived oligopeptide C23 (human CIRP aa 111-125) (peptide)
peptide: GRGFSRGGGDRGYGG
B5: rhMD2 (Accession #BAA78717; Glu17-Asn160) with 10-His tag at the C-terminus (receptor, human)
chain: EAQKQYWVCNSSDASISYTYCDKMQYPISINVNPCIELKRSKGLLHIFYIPRRDLKQLYFNLYITVNTMNLPKRKEVICRGSDDDYSFCRALKGETVNTTISFSFKGIKFSKGKYKCVVEAISGSPEEMLFCLEFVILHQPNSNHHHHHHHHHH
notes: range 17-160; From R&D Systems, expressed in E. coli; also called TLR4 co-receptor MD2

Legend:
[1] = biological target: T1, rhTLR4/MD2 complex (rhTLR4 Glu24-Lys631 co-expressed with rhMD2 Glu17-Asn160, His tag at each protein) (human, UniProt O00206 24-631; Q9Y6Y9 17-160); test: SPR, BIAcore T200, kinetic analysis, 1:1 Langmuir fit; target rhTLR4/MD2 complex
T1 construct: range 24-631;range 17-160; Purified from NS0 cells co-expressing both proteins; R&D Systems; not shown: His tag; for the complex only 'His tag at each protein' is said (a general sentence gives a C-terminal 10-His tag for rh)
T1 sequence (O00206 24-631 limits assumed, form in doubt, one chain of several): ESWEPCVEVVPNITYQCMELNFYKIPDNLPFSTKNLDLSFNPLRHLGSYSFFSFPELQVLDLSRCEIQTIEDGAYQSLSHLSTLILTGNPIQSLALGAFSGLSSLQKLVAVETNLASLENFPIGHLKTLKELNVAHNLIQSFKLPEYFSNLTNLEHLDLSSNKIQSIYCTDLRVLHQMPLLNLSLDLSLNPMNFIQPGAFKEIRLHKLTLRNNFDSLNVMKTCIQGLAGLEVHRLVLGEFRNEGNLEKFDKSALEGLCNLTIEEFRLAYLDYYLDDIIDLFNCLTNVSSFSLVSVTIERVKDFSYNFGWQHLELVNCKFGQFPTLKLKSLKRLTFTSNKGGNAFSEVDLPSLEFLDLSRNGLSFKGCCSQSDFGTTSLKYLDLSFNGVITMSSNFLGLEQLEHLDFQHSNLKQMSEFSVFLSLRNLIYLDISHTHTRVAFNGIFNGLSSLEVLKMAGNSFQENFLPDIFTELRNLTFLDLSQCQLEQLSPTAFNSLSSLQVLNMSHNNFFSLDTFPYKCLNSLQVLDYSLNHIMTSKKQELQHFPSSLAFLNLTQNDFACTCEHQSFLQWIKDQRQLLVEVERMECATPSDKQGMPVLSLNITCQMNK
Experimental: (§1) Analysis of protein-protein and peptide-protein interactions were conducted using the BIAcore T200 instrument (GE Healthcare). Binding reactions were performed in 1×PBS buffer containing 0.01% Tween-20 (pH 7.4). The CM5 dextran chip (flow cell-2) was first activated by injection with 89 μl of 0.1 M […] and 0.1 M N-hydroxysuccinimide. An aliquot of 200 μl of 5 μg/ml of the ligand diluted in 10 mM sodium acetate (pH 4.5) was injected into flow cell-2 of the CM5 chip for immobilization. Next, 135 μl of 1 M ethanolamine (pH 8.2) was then injected to block the remaining active sites. The flow cell-1 without coating with the ligand was used as a control to evaluate nonspecific binding. The binding analyses were performed at flow rate of 30 μl/min at 25° C. […] The signal from the blank channel (flow cell-1) was subtracted from the channel (flow-cell 2) coated with the ligand. Data were analyzed by the BIAcore T200 Evaluation Software. For all samples, a blank injection with buffer alone was subtracted from the resulting reaction surface data. Data were globally fitted to the Lagmuir model for a 1:1 binding.
(§2) Surface plasmon resonance (SPR) analysis was utilized to determine the physical interaction and binding affinity between rhCIRP and pattern-recognition receptors and MD2.

[2] = biological target: T2, rhTLR4 (Accession #O00206; Glu24-Lys631) with 10-His tag at the C-terminus (human, UniProt O00206 24-631); test: SPR, BIAcore T200, kinetic analysis, 1:1 Langmuir fit; target rhTLR4
T2 construct: range 24-631; From R&D Systems, expressed in mouse myeloma NS0 cells
T2 sequence (O00206 other isoform, or with tags, fused parts or gaps limits assumed): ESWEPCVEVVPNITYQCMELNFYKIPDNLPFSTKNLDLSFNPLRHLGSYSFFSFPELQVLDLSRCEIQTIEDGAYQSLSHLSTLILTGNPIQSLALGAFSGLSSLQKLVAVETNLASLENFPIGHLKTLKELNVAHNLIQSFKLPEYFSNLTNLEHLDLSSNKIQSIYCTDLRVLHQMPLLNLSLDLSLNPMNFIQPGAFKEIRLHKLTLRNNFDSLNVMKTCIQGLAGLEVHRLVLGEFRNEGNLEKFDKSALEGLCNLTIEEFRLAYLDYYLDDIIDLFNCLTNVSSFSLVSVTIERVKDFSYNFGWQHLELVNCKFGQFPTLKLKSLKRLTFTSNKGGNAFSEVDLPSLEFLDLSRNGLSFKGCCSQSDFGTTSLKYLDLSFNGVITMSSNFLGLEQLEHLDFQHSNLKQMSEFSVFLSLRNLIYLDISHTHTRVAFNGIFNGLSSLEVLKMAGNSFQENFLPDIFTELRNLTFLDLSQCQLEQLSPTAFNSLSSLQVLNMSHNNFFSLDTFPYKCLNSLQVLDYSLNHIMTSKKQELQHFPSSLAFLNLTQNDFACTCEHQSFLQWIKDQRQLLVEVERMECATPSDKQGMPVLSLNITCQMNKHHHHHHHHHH
Experimental: as §1, §2

[3] = biological target: T3, rhRAGE (Accession #Q15109; Ala23-Ala344) with C-terminal 6-His tag (human, UniProt Q15109 23-344); test: SPR (BIAcore T200), analyte rhRAGE over immobilized rhCIRP; apparent KD from kinetic analysis
T3 construct: range 23-344; From Biovision, expressed in HEK293 cells
T3 sequence (Q15109 other isoform, or with tags, fused parts or gaps limits assumed): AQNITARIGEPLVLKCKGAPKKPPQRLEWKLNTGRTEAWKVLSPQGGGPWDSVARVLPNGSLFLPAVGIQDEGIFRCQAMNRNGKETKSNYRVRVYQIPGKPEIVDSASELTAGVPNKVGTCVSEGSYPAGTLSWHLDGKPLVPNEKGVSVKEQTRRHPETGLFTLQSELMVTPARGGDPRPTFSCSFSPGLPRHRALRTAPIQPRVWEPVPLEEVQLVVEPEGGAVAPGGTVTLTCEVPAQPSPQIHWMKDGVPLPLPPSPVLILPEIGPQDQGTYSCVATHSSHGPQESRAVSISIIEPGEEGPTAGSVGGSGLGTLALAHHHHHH
Experimental: as §1, §2

[4] = biological target: T4, rhTLR2 (Accession #NP_003255; Glu21-Leu590) with 10-His tag at the C-terminus (human, UniProt O60603 21-590); test: SPR (BIAcore T200), analyte rhTLR2 over immobilized rhCIRP; apparent KD from kinetic analysis
T4 construct: range 21-590; From R&D Systems, expressed in mouse myeloma NS0 cells
T4 sequence (O60603 other isoform, or with tags, fused parts or gaps limits assumed): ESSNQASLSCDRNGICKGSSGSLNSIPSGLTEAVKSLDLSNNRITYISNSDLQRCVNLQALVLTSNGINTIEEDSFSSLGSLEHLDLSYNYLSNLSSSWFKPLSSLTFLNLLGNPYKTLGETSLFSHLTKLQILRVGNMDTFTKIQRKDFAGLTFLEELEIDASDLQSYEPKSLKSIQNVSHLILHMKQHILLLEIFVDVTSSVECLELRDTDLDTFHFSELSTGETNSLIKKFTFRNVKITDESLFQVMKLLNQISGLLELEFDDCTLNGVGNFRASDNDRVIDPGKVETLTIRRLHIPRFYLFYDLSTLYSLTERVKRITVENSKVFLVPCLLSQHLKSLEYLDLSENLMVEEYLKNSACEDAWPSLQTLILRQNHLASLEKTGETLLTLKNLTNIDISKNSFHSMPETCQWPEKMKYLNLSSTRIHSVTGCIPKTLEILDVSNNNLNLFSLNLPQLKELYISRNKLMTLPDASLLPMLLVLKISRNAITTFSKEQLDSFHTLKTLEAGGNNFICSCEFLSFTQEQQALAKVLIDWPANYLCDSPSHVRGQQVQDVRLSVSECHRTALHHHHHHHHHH
Experimental: as §1, §2

[5] = biological target: B5; test: SPR, 15-mer oligopeptide as analyte over immobilized rhMD2
Experimental: as §1, §2

[6] = biological target: B1; test: SPR, BIAcore T200, kinetic analysis, 1:1 Langmuir fit; target rhMD2
Experimental: as §1, §2

[7] = biological target: T2, rhTLR4 (Accession #O00206; …); test: SPR, BIAcore T200, positive control; rhMD2 to rhTLR4, positive control
Experimental: as §1, §2

Binder: B1
- Kd [1]: 239 nM
- Kd [2]: 617 nM
- Kd [3]: 33.1 nM
- Kd [4]: 258 nM

Binder: B2
- Kd [5]: 129 nM

Binder: B3
- Kd [5]: 1510 nM

Binder: B4
- Kd [5]: 29.7 nM

Binder: B5
- Kd [6]: 302 nM
- Kd [7]: 53.7 nM
